This is an account of results in publication PMC8718897 (Translational Oncology, 2021).

The target in this test is Krüppel-like factor 9 (KLF9) (human (endogenous in MDA-MB-231), UniProt Q13886 1-244). The test is described as follows: co-IP.
Sequence of Krüppel-like factor 9 (KLF9) (Q13886 whole entry): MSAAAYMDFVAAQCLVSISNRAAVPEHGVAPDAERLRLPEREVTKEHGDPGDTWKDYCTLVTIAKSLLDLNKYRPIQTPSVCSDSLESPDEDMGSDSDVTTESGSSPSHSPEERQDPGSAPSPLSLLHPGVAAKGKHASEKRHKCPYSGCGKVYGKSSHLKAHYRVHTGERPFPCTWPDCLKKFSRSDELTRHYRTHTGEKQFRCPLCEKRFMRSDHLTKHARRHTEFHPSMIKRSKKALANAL

B1: SIN3A (natural protein, UniProt Q96ST3 1-1273, looked up)
chain: MKRRLDDQESPVYAAQQRRIPGSTEAFPHQHRVLAPAPPVYEAVSETMQSATGIQYSVTPSYQVSAMPQSSGSHGPAIAAVHSSHHHPTAVQPHGGQVVQSHAHPAPPVAPVQGQQQFQRLKVEDALSYLDQVKLQFGSQPQVYNDFLDIMKEFKSQSIDTPGVISRVSQLFKGHPDLIMGFNTFLPPGYKIEVQTNDMVNVTTPGQVHQIPTHGIQPQPQPPPQHPSQPSAQSAPAPAQPAPQPPPAKVSKPSQLQAHTPASQQTPPLPPYASPRSPPVQPHTPVTISLGTAPSLQNNQPVEFNHAINYVNKIKNRFQGQPDIYKAFLEILHTYQKEQRNAKEAGGNYTPALTEQEVYAQVARLFKNQEDLLSEFGQFLPDANSSVLLSKTTAEKVDSVRNDHGGTVKKPQLNNKPQRPSQNGCQIRRHPTGTTPPVKKKPKLLNLKDSSMADASKHGGGTESLFFDKVRKALRSAEAYENFLRCLVIFNQEVISRAELVQLVSPFLGKFPELFNWFKNFLGYKESVHLETYPKERATEGIAMEIDYASCKRLGSSYRALPKSYQQPKCTGRTPLCKEVLNDTWVSFPSWSEDSTFVSSKKTQYEEHIYRCEDERFELDVVLETNLATIRVLEAIQKKLSRLSAEEQAKFRLDNTLGGTSEVIHRKALQRIYADKAADIIDGLRKNPSIAVPIVLKRLKMKEEEWREAQRGFNKVWREQNEKYYLKSLDHQGINFKQNDTKVLRSKSLLNEIESIYDERQEQATEENAGVPVGPHLSLAYEDKQILEDAAALIIHHVKRQTGIQKEDKYKIKQIMHHFIPDLLFAQRGDLSDVEEEEEEEMDVDEATGAVKKHNGVGGSPPKSKLLFSNTAAQKLRGMDEVYNLFYVNNNWYIFMRLHQILCLRLLRICSQAERQIEEENREREWEREVLGIKRDKSDSPAIQLRLKEPMDVDVEDYYPAFLDMVRSLLDGNIDSSQYEDSLREMFTIHAYIAFTMDKLIQSIVRQLQHIVSDEICVQVTDLYLAENNNGATGGQLNTQNSRSLLESTYQRKAEQLMSDENCFKLMFIQSQGQVQLTIELLDTEEENSDDPVEAERWSDYVERYMNSDTTSPELREHLAQKPVFLPRNLRRIRKCQRGREQQEKEGKEGNSKKTMENVDSLDKLECRFKLNSYKMVYVIKSEDYMYRRTALLRAHQSHERVSKRLHQRFQAWVDKWTKEHVPREMAAETSKWLMGEGLEGLVPCTTTCDTETLHFVSINKYRVKYGTVFKAP
B1: the “fold increase of association after 24 h with 5 uM PF1-SID peptide” value turned out to be 4.6 fold and the “fold increase of association in PF1-SID cells against vector cells” value was 2.5 fold.
